A short description of the data set: collision cross section of modified peptide (TIMS, N2, iRT-aligned); higher = larger / more extended gas-phase ion. A digest of the protocol:
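Values are averages of 1–3 technical replicates of the most abundant feature for each charge state. Collision cross section was obtained from the Mason-Schamp equation after 1/K0 calibration with three reference ions and run-wise alignment to the median iRT peptide deviation. Synthetic peptide pools (iRT standard spiked 1:40) were separated on a 120-min nanoflow C18 gradient at 60 °C, analysed on a timsTOF Pro/HT (dda-PASEF, nitrogen, ~2.4 mbar) and identified with MaxQuant.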

[1] abbreviates: charge state: 2, modification: Formyl.
Where [2] appears, read: charge state: 2, modification: Succinyl.
Setting [3] is: charge state: 2, modification: Citrullination (R).
The mark [4] stands for this setting: charge state: 3, modification: Biotin.
Setting [5] is: charge state: 2, modification: Glutarylation.
Where [6] appears, read: charge state: 3, modification: Glutarylation.
The mark [7] stands for this setting: charge state: 2, modification: Hydroxyproline.
Setting [8] is: charge state: 2, modification: GlyGly (K).
Where [9] appears, read: charge state: 3, modification: GlyGly (K).
Where [10] appears, read: charge state: 2, modification: Crotonyl.
Setting [11] is: charge state: 3, modification: Formyl.
Setting [12] is: charge state: 2, modification: Acetyl (K).
[13] abbreviates: charge state: 3, modification: Acetyl (K).
The mark [14] stands for this setting: charge state: 3, modification: Succinyl.
Where [15] appears, read: charge state: 2, modification: Phospho (Y).
Where [16] appears, read: charge state: 2, modification: Trimethyl (K).
Where [17] appears, read: charge state: 3, modification: Trimethyl (K).
Where [18] appears, read: charge state: 2, modification: Malonyl.
Where [19] appears, read: charge state: 2, modification: Propionyl.

± gives the standard deviation.

Substance KFGVLSDNFK [_K(Formyl)FGVLSDNFK_] registered a collision cross section under setting [1] of 368.1 ± 0.89 Å².
As for LQLEIDQKK [_LQLEIDQK(Succinyl)K_], the collision cross section under setting [2] is given as 370.18 ± 1.1 Å².
Under setting [3], “SRFYSGFNSR [_SR(Citrullination (R))FYSGFNSR_]” registered a collision cross section of 364.39 ± 0.53 Å².
DFDTALKHYDK [_DFDTALK(Biotin)HYDK_]: the collision cross section (charge state: 2, modification: Biotin) is on record as 424.89 ± 0.23 Å² and the collision cross section under setting [4] was determined as 488.66 Å².
For the substance “IVSGKDYNVTANSK [_IVSGK(Gluratylation)DYNVTANSK_]”, the collision cross section worked out at 417.68 ± 1.5 Å² under setting [5] and 473.57 ± 2.4 Å² under setting [6].
With VQFAPEK [_VQFAP(Hydroxyproline)EK_], the collision cross section under setting [7] came to 316.39 ± 1.9 Å².
For “VDIDVPDVNIEGPDAKLK [_VDIDVPDVNIEGPDAK(GlyGly (K))LK_]”, the collision cross section was 469.92 ± 1.9 Å² under setting [8] and 504.15 ± 0.79 Å² under setting [9].
Consider “GVPRGVHLGSQGLQR [_GVPR(Citrullination (R))GVHLGSQGLQR_]”, for which the collision cross section is, setting by setting: under setting [3], 439.96 Å²; (charge state: 3, modification: Citrullination (R)) 482.18 ± 0.41 Å².
Under setting [10], ILDLKTGTVK [_ILDLK(Crotonyl)TGTVK_] returned a collision cross section of 360.69 ± 0.88 Å².
Consider “TQDQISNIKYHEEFEK [_TQDQISNIK(Dimethyl (K))YHEEFEK_]”, for which, for the setting “charge state: 3, modification: Dimethyl (K)”, the collision cross section was determined as 542.8 ± 0.41 Å².
Under setting [10], “VNVEAPDVNLEGLGGKLK [_VNVEAPDVNLEGLGGK(Crotonyl)LK_]” gave a collision cross section of 459.79 Å².
As for ITLSKHQNVQLPR [_ITLSK(Formyl)HQNVQLPR_], the collision cross section reads like this: under setting [1], 435.58 ± 0.72 Å²; under setting [11], 504.15 ± 24 Å².
As for “VLTANSNPSSPSAAKR [_VLTANSNPSSPSAAK(Methyl (K))R_]”, the collision cross section worked out at 432.87 ± 1.5 Å² (charge state: 2, modification: Methyl (K)) and 521.25 ± 1.8 Å² (charge state: 3, modification: Methyl (K)).
Regarding “DESFLGKLGGTLAR [_DESFLGK(Acetyl (K))LGGTLAR_]”, the collision cross section was 410.82 ± 1.1 Å² under setting [12] and 491.27 Å² under setting [13].
For GGSAGGRGFFR [_GGSAGGR(Methyl (R))GFFR_], the collision cross section reads like this: (charge state: 2, modification: Methyl (R)) 365.18 ± 0.78 Å²; (charge state: 3, modification: Methyl (R)) 426.87 ± 4.1 Å².
In the case of “GADFLVTEVENGGSLGSKK [_GADFLVTEVENGGSLGSK(Crotonyl)K_]”, the collision cross section is 475.14 ± 1.9 Å² under setting [10] and 548.96 Å² (charge state: 3, modification: Crotonyl).
“SKLLFSNTAAQK [_SK(GlyGly (K))LLFSNTAAQK_]”: the collision cross section reads like this: under setting [8], 396.71 ± 0.37 Å²; under setting [9], 447.27 ± 13 Å².
LEKTIDDLEEK [_LEK(Formyl)TIDDLEEK_] came in with a collision cross section under setting [1] of 399.8 ± 0.55 Å².
With “GFALVGVGSEASSKK [_GFALVGVGSEASSK(Succinyl)K_]”, the collision cross section under setting [2] was found to be 413.38 ± 0.54 Å² and the collision cross section under setting [14] was 497.13 ± 2.5 Å².
As for “VSPASSVDSNIPSSQGYKK [_VSPASSVDSNIPSSQGYK(GlyGly (K))K_]”, the collision cross section under setting [8] came to 469.54 ± 1.4 Å² and the collision cross section under setting [9] is listed as 521.06 ± 4.6 Å².
“LGILPVGRGK [_LGILPVGR(Citrullination (R))GK_]” had a collision cross section under setting [3] of 340.52 ± 0.26 Å².
In the case of “VFIGNLNTLVVKK [_VFIGNLNTLVVK(Succinyl)K_]”, the collision cross section was 423.07 ± 0.53 Å² under setting [2] and 489.97 ± 1.6 Å² under setting [14].
As to “TSAVSSQANSQPPVQVSVK [_T(HexNAc (ST))SAVSSQANSQPPVQVSVK_]”, the collision cross section (charge state: 3, modification: HexNAc (ST)) stood at 513.92 Å².
With “DESFLGKLGGTLAR [_DESFLGK(Gluratylation)LGGTLAR_]”, the collision cross section reads like this: under setting [5], 418.47 ± 2.1 Å²; under setting [6], 488.45 ± 2.4 Å².
Regarding LYAVHQEGNK [_LY(Phospho (Y))AVHQEGNK_], the collision cross section was found to be 367.74 ± 0.74 Å² under setting [15] and 466.01 ± 0.98 Å² (charge state: 3, modification: Phospho (Y)).
As to “VNVEAPDVNLEGLGGKLK [_VNVEAPDVNLEGLGGK(Trimethyl (K))LK_]”, the collision cross section was determined as 469.62 ± 0.99 Å² under setting [16] and 545.57 ± 1.8 Å² under setting [17].
Turning to “VYIASSSGSTAIKK [_VYIASSSGSTAIK(Acetyl (K))K_]”, the collision cross section reads like this: under setting [12], 414.5 ± 2.5 Å²; under setting [13], 503.2 ± 1.2 Å².
On to SDDESSQKDIK [_SDDESSQK(Crotonyl)DIK_], for which the collision cross section under setting [10] worked out at 379.43 ± 0.8 Å².
Take “IQTKAGEATVK [_IQTK(Dimethyl (K))AGEATVK_]”: for the setting “charge state: 2, modification: Dimethyl (K)”, the collision cross section amounted to 367.67 ± 0.82 Å².
“KFGVLSDNFK [_K(Gluratylation)FGVLSDNFK_]” returned a collision cross section under setting [5] of 380.33 ± 0.73 Å².
“SNEEGSEEKGPEVR [_SNEEGSEEK(hydroxyisobutyryl)GPEVR_]” came in with a collision cross section (charge state: 2, modification: hydroxyisobutyryl) of 409.53 ± 1.1 Å².
With “SPSDSGYSYETIGKTTK [_SPSDSGYSYETIGK(Gluratylation)TTK_]”, the collision cross section runs as follows: under setting [5], 456.74 ± 1.5 Å²; under setting [6], 531.96 ± 0.12 Å².
“YEEIVKEVSTYIK [_YEEIVK(Acetyl (K))EVSTYIK_]” yielded a collision cross section under setting [12] of 431.89 ± 3.1 Å².
For “PSVGSQSNQAGQGKR [_PSVGSQSNQAGQGK(Formyl)R_]”, the collision cross section stood at 402.96 ± 2 Å² under setting [1] and 470.1 ± 1.8 Å² under setting [11].
Take RGPPGAK [_RGPP(Hydroxyproline)GAK_]: the collision cross section under setting [7] is given as 303.1 ± 0.0067 Å².
VGEFSGANKEK [_VGEFSGANK(Acetyl (K))EK_] came in with a collision cross section under setting [12] of 363.56 ± 0.5 Å².
Substance ASAISIKLGSSK [_ASAISIK(Malonyl)LGSSK_] had a collision cross section under setting [18] of 370.34 ± 0.77 Å².
Consider “SLGEPAAGEGSAKR [_SLGEPAAGEGSAK(Propionyl)R_]”, for which the collision cross section by setting is: under setting [19], 383.35 ± 1.5 Å²; (charge state: 3, modification: Propionyl) 488 ± 0.51 Å².
Under setting [1], “VLDSGAPIKIPVGPETLGR [_VLDSGAPIK(Formyl)IPVGPETLGR_]” showed a collision cross section of 463.34 ± 1.2 Å².
Turning to “DESFLGKLGGTLAR [_DESFLGK(Formyl)LGGTLAR_]”, the collision cross section under setting [1] amounted to 408.46 ± 1.1 Å².
Take “TQAYQDQKPGTSGLR [_TQAYQDQK(Butyryl)PGTSGLR_]”: the collision cross section is reported as 427.73 ± 0.77 Å² (charge state: 2, modification: Butyryl) and 479.17 ± 3.5 Å² (charge state: 3, modification: Butyryl).
In the case of “GFCFITYTDEEPVKK [_GFCFITYTDEEPVK(Acetyl (K))K_]”, the collision cross section under setting [12] is recorded as 451.75 ± 3.1 Å².
As for ITASLCDLKSR [_ITASLCDLK(Formyl)SR_], the collision cross section under setting [1] stood at 378.38 Å².
Under setting [4], “GSLGAQKLANTCFNEIEK [_GSLGAQK(Biotin)LANTCFNEIEK_]” registered a collision cross section of 538.06 ± 0.96 Å².
Substance YTAQVDAEEK [_Y(Phospho (Y))TAQVDAEEK_] registered a collision cross section under setting [15] of 361.18 ± 0.78 Å².
“VDIDAPDVSIEGPDAKLK [_VDIDAPDVSIEGPDAK(Malonyl)LK_]” yielded a collision cross section under setting [18] of 466.92 ± 1.2 Å².
As for “LDEKENLSAK [_LDEK(Trimethyl (K))ENLSAK_]”, the collision cross section under setting [16] amounted to 376.2 ± 0.61 Å² and the collision cross section under setting [17] is given as 441.92 ± 3.4 Å².
Take VGEFSGANKEK [_VGEFSGANK(Propionyl)EK_]: the collision cross section under setting [19] is reported as 367.87 ± 0.33 Å².
In the case of “VFIGNLNTLVVKKK [_VFIGNLNTLVVK(Formyl)KK_]”, the collision cross section under setting [11] turned out to be 499.94 Å².

Source of the values: the supplement of paper PMC10598134.
